Measured values as given in the RNAGym collection of RNA variant scans (doi:10.1021/acssynbio.7b00057).

B1: Pistol ribozyme (parent)
chain: GGGUCGUUGUUCCAUAAUCGCGUGGAUAUGGCACGCAAGUUUCUACCGGGCACCGUAAAUGUCCGACUGGAGCCGUUCGGGCGGCUAUAAACAGACCUCAGGCCCGAAGCGUGGCGGCACCUGCCGCCGGUGGUAAAAAAGAUCGGAAGAGCACACGUCU

Variants of: B1
Assay: aptazyme ON/OFF ratio, guanine; higher = stronger switching; co-transcriptional cleavage with and without guanine

| Variant | aptazyme ON/OFF ratio |
| --- | --- |
| U7G U8G G9C U10C U11C | 1.22 |
| U7G U8G G9C U10C U11G | 1.35 |
| U7G U8G G9C U10C U11A | 1.64 |
| U7G U8G G9C U10C U11C C13U | 1.07 |
| U7G U8G G9C U10C U11C C13G | 1.04 |
| U7G U8G G9C U10C U11C C13A | 1.09 |
| U7G U8G G9U U10A C12U C13U | 1.06 |
| U7G U8G G9U U10A C12U C13A | 1.11 |
| U7G U8G G9U U10A C12U C13G | 1.09 |
| U7G U8G G9U U10A U11G C12U C13A | 1.1 |
| U7G U8G G9U U10A U11G C12U C13U | 1.08 |
| U7G U8G G9U U10A U11G C12U C13G | 1.11 |
| U7G U8G G9U U10C U11C C12A | 1.46 |
| U7G U8G G9U U10C U11C C12U | 1.53 |
| U7G U8G G9U U10C U11C C12G | 1.46 |
| U7G U8G G9U U10A U11C C12G | 1.19 |
| U7G U8G G9U U10A U11C C12U | 1.22 |
| U7G U8G G9U U10A U11C C12A | 1.32 |
| U7G U8G G9C U10G U11G C13U | 1.28 |
| U7G U8G G9C U10G U11G C13G | 1.17 |
| U7G U8G G9C U10G U11G C13A | 1.18 |
| U7G U8G G9C U11G C12U C13G | 1.05 |
| U7G U8G G9C U11G C12U C13U | 1.26 |
| U7G U8G G9C U11G C12U C13A | 1.3 |

| Variant | aptazyme ON/OFF ratio |
| --- | --- |
| U7G U8G G9C U10A U11G C12U C13U | 1.05 |
| U7G U8G G9U U10C | 1.51 |
| U7G U8G G9U U10G | 1.42 |
| U7G U8G G9U U10A | 3.21 |
| U7G U8G G9C U10G U11C C12A C13U | 1.12 |
| U7G U8G G9C U10G U11C C12A C13G | 1.05 |
| U7G U8G G9C U10G U11C C12A C13A | 1.1 |
| U7G U8G G9C U10C C12G C13G | 1.09 |
| U7G U8G G9C U10C C12G C13A | 1.22 |
| U7G U8G G9C U10C C12G C13U | 1.27 |
| U7G U8G G9U U10C C13U | 1.28 |
| U7G U8G G9U U10C C13G | 1.31 |
| U7G U8G G9U U10C C13A | 1.43 |
| U7G U8G G9U U10G C12A | 1.44 |
| U7G U8G G9U U10G C12G | 1.33 |
| U7G U8G G9U U10G C12U | 1.13 |
| U7G U8G G9C U11A C13U | 1.36 |
| U7G U8G G9C U11A C13A | 1.15 |
| U7G U8G G9C U11A C13G | 1.04 |
| U7G U8G G9U C12U C13U | 1.26 |
| U7G U8G G9U C12U C13A | 1.23 |
| U7G U8G G9U C12U C13G | 1.14 |
| U7G U8G G9C U11A C12U | 1.53 |
| U7G U8G G9C U11A C12G | 1.17 |

| Variant | aptazyme ON/OFF ratio |
| --- | --- |
| U7G U8G G9C U11A C12A | 1.31 |
| U7G U8G G9C U10C C12G | 1.28 |
| U7G U8G G9C U10C C12U | 1.38 |
| U7G U8G G9C U10C C12A | 1.33 |
| U7G U8G G9U U10A U11A C12G C13G | 1.11 |
| U7G U8G G9U U10A U11A C12G C13U | 1.14 |
| U7G U8G G9U U10A U11A C12G C13A | 1.2 |
| U7G U8G G9C U10C U11A C12U C13G | 1.32 |
| U7G U8G G9C U10C U11A C12U C13U | 1.23 |
| U7G U8G G9C U10C U11A C12U C13A | 1.36 |
| U7G U8G G9U U10G C12A C13A | 1.09 |
| U7G U8G G9U U10G C12A C13U | 1.16 |
| U7G U8G G9U U10G C12A C13G | 1.14 |
| U7G U8G G9C U10C C13G | 1.15 |
| U7G U8G G9C U10C C13U | 1.59 |
| U7G U8G G9C U10C C13A | 1.44 |
| U7G U8G G9C U10C U11G C12G C13U | 1.07 |
| U7G U8G G9C U10C U11G C12G C13G | 1.17 |
| U7G U8G G9C U10C U11G C12G C13A | 1.19 |
| U7G U8G G9U C13U | 1.43 |
| U7G U8G G9U C13G | 1.26 |
| U7G U8G G9U C13A | 1.44 |
| U7G U8G G9C U10G U11A C12A C13G | 1.12 |
| U7G U8G G9C U10G U11A C12A C13U | 1.11 |

| Variant | aptazyme ON/OFF ratio |
| --- | --- |
| U7G U8G G9C U10G U11A C12A C13A | 1.14 |
| U7G U8G G9U U10A U11C C12G C13A | 1.08 |
| U7G U8G G9U U10A U11C C12G C13U | 1.14 |
| U7G U8G G9U U10A U11C C12G C13G | 1.09 |
| U7G U8G G9C U10C U11C C12U | 1.18 |
| U7G U8G G9C U10C U11C C12G | 1.05 |
| U7G U8G G9C U10C U11C C12A | 1.09 |
| U7G U8G G9C U10C C12U C13U | 1.08 |
| U7G U8G G9C U10C C12U C13A | 1.29 |
| U7G U8G G9C U10C C12U C13G | 1.36 |
| U7G U8G G9C U10G U11A C12U C13G | 1.1 |
| U7G U8G G9C U10G U11A C12U C13U | 1.1 |
| U7G U8G G9C U10G U11A C12U C13A | 1.13 |
| U7G U8G G9C U10A U11G C13G | 1.03 |
| U7G U8G G9C U10A U11G C13A | 1.08 |
| U7G U8G G9C U10A U11G C13U | 1.04 |
| U7G U8G G9U C12U | 1.66 |
| U7G U8G G9U C12G | 1.18 |
| U7G U8G G9U C12A | 1.56 |
| U7G U8G G9U U10A U11A C13A | 1.14 |
| U7G U8G G9U U10A U11A C13G | 1.08 |
| U7G U8G G9U U10A U11A C13U | 1.28 |
| U7G U8G G9C U10C U11A C12A C13U | 1.12 |
| U7G U8G G9C U10C U11A C12A C13A | 1.33 |

| Variant | aptazyme ON/OFF ratio |
| --- | --- |
| U7G U8G G9C U10C U11A C12A C13G | 1.23 |
| U7G U8G G9C U10G C12U | 1.17 |
| U7G U8G G9C U10G C12G | 1.21 |
| U7G U8G G9C U10G C12A | 1.14 |
| U7G U8G G9C U10C C12A C13U | 1.25 |
| U7G U8G G9C U10C C12A C13A | 1.29 |
| U7G U8G G9C U10C C12A C13G | 1.27 |
| U7G U8G G9U U10A C12A C13G | 1.14 |
| U7G U8G G9U U10A C12A C13U | 1.15 |
| U7G U8G G9U U10A C12A C13A | 1.21 |
| U7G U8G G9C U10C U11G C12U C13A | 1.25 |
| U7G U8G G9C U10C U11G C12U C13U | 1.22 |
| U7G U8G G9C U10C U11G C12U C13G | 1.22 |
| U7G U8G G9C U11C C12U C13A | 1.43 |
| U7G U8G G9C U11C C12U C13G | 1.37 |
| U7G U8G G9C U11C C12U C13U | 1.26 |
| U7G U8G G9U U10C U11C C12A C13A | 1.33 |
| U7G U8G G9U U10C U11C C12A C13G | 1.3 |
| U7G U8G G9U U10C U11C C12A C13U | 1.53 |
| U7G U8G G9C U10G U11A C12G C13U | 1.16 |
| U7G U8G G9C U10G U11A C12G C13A | 1.06 |
| U7G U8G G9C U10G U11A C12G C13G | 1.12 |
| U7G U8G G9C U10C | 2.35 |
| U7G U8G G9C U10G | 1.74 |

| Variant | aptazyme ON/OFF ratio |
| --- | --- |
| U7G U8G G9U U10A U11G C12G | 1.08 |
| U7G U8G G9U U10A U11G C12A | 1.03 |
| U7G U8G G9U U10A U11G C12U | 1.07 |
| U7G U8G G9U U10C U11C | 2.05 |
| U7G U8G G9U U10C U11G | 1.28 |
| U7G U8G G9U U10C U11A | 1.47 |
| U7G U8G G9U U10C U11G C12U C13G | 1.24 |
| U7G U8G G9U U10C U11G C12U C13A | 1.23 |
| U7G U8G G9U U10C U11G C12U C13U | 1.4 |
| U7G U8G G9C U11G C12G | 1.6 |
| U7G U8G G9C U11G C12U | 1.31 |
| U7G U8G G9C U11G C12A | 1.73 |
| U7G U8G G9U U10C U11A C12G C13U | 1.45 |
| U7G U8G G9U U10C U11A C12G C13G | 1.15 |
| U7G U8G G9U U10C U11A C12G C13A | 1.14 |
| U7G U8G G9C U11C C12G C13U | 1.39 |
| U7G U8G G9C U11C C12G C13A | 1.16 |
| U7G U8G G9C U11C C12G C13G | 1.06 |
| U7G U8G G9C U11C C12A C13A | 1.37 |
| U7G U8G G9C U11C C12A C13U | 4.45 |
| U7G U8G G9C U11C C12A C13G | 1.13 |
| U7G U8G G9C U10C U11A C12U | 1.3 |
| U7G U8G G9C U10C U11A C12A | 1.3 |
| U7G U8G G9C U10C U11A C12G | 1.32 |

| Variant | aptazyme ON/OFF ratio |
| --- | --- |
| U7G U8G G9U U10A U11A C12A | 1.14 |
| U7G U8G G9U U10A U11A C12G | 1.19 |
| U7G U8G G9U U10A U11A C12U | 1.31 |
| U7G U8G G9U U10A U11A | 2.87 |
| U7G U8G G9U U10A U11G | 1.27 |
| U7G U8G G9U U10A U11C | 1.09 |
| U7G U8G G9U U10A U11A C12U C13A | 1.11 |
| U7G U8G G9U U10A U11A C12U C13U | 1.18 |
| U7G U8G G9U U10A U11A C12U C13G | 1.11 |
| U7G U8G G9C U11C C13G | 1.4 |
| U7G U8G G9C U11C C13A | 1.4 |
| U7G U8G G9C U11C C13U | 1.33 |
| U7G U8G G9C U10G U11C C12U C13G | 1.33 |
| U7G U8G G9C U10G U11C C12U C13A | 1.15 |
| U7G U8G G9C U10G U11C C12U C13U | 1.11 |
| U7G U8G G9U U10A U11G C13A | 1.07 |
| U7G U8G G9U U10A U11G C13G | 1.13 |
| U7G U8G G9U U10A U11G C13U | 1.12 |
| U7G U8G G9C U10G U11C C12U | 1.04 |
| U7G U8G G9C U10G U11C C12A | 1.25 |
| U7G U8G G9C U10G U11C C12G | 1.18 |
| U7G U8G G9U U10A U11G C12G C13A | 1.13 |
| U7G U8G G9U U10A U11G C12G C13U | 1.05 |
